Assay results from paper PMC9482650, “Quantitative fragmentomics allow affinity mapping of interactomes” (Nature Communications, 2022).

Tests used:
Assay in all cases: holdup assay
Parameters in all cases: key: below the threshold = too weak to quantify, mostly under pKd 3.1 to 4
[1] = target: NHERF4_4, Q86UT5
[2] = target: DLG4_1, P78352
[3] = target: T1, NHERF3_1, Q5T2W1
T1 sequence (Q5T2W1 4-100, limits assumed, looked up): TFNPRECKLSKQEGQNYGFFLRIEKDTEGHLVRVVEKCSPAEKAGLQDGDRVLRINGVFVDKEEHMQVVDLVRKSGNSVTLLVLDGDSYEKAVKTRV

[4] = target: T2, HTRA4, P83105
T2 sequence (P83105 378-476, limits assumed, looked up): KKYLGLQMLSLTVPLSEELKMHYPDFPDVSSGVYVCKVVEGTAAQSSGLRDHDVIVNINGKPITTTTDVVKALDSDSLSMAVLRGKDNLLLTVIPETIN

[5] = target: Inadl_8, Q8NI35
Inadl_8, Q8NI35, sequence (Q8NI35 1425-1530): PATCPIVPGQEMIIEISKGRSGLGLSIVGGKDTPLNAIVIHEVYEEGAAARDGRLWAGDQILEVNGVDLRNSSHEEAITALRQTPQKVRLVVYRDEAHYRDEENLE

[6] = target: MAST2, Q6P0Q8
MAST2, Q6P0Q8, sequence (Q6P0Q8 1099-1202): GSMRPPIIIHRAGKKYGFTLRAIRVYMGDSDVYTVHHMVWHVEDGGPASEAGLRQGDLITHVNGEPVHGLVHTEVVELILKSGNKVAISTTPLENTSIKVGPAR

[7] = target: LIMK2, P53671
LIMK2, P53671, sequence (P53671 143-248): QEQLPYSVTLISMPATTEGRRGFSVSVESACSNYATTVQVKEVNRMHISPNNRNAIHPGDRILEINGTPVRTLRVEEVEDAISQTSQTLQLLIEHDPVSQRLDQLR

[8] = target: GORASP2, Q9H8Y8
[9] = target: NHERF4_1, Q86UT5-2
NHERF4_1, Q86UT5-2, sequence (Q86UT5 other isoform, or with tags, fused parts or gaps): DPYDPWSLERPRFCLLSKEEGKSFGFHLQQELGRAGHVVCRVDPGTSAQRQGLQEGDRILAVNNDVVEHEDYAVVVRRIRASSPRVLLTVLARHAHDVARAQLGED

[10] = target: MAGI2_5, Q86UL8
MAGI2_5, Q86UL8, sequence (Q86UL8 915-1017): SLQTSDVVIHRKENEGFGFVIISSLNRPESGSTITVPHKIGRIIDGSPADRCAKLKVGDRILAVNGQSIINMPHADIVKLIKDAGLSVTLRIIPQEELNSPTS

[11] = target: T3, PDZD2_2, O15018
T3 sequence (O15018 329-429, limits assumed, looked up): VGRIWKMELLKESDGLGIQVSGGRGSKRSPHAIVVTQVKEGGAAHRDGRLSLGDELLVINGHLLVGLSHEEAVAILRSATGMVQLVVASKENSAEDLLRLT

[12] = target: DLG4_3, P78352
DLG4_3, P78352, sequence (P78352 306-403): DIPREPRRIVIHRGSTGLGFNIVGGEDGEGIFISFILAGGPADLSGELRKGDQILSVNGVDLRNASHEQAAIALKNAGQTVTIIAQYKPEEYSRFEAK

[13] = target: Inadl_2, Q8NI35
Inadl_2, Q8NI35, sequence (Q8NI35 238-335): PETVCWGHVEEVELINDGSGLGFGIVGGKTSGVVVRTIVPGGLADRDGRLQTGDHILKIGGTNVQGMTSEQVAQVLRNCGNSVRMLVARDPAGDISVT

[14] = target: GRIP2_3, Q9C0E4
GRIP2_3, Q9C0E4, sequence (Q9C0E4 238-339): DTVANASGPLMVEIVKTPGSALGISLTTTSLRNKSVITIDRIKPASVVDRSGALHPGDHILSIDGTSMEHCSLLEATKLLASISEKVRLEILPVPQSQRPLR

[15] = target: FRMPD4, Q14CM0
FRMPD4, Q14CM0, sequence (Q14CM0 67-160): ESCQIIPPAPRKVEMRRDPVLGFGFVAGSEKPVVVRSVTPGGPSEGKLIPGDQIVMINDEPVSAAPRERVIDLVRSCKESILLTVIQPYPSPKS

[16] = target: LNX1_3, Q8TBB1
LNX1_3, Q8TBB1, sequence (Q8TBB1 500-596): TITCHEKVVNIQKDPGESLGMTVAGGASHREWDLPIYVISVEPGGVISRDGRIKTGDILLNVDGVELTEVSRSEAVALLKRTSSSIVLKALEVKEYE

[17] = target: DLG1_3, Q12959
DLG1_3, Q12959, sequence (Q12959 457-571): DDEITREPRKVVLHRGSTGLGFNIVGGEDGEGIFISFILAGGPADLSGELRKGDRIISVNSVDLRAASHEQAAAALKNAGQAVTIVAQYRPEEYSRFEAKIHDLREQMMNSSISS

[18] = target: LNX1_1, Q8TBB1
LNX1_1, Q8TBB1, sequence (Q8TBB1 261-371): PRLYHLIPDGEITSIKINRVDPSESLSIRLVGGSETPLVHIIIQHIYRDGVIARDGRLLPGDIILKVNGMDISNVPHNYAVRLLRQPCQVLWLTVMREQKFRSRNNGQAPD

[19] = target: SCRIB_2, Q14160
SCRIB_2, Q14160, sequence (Q14160 857-960): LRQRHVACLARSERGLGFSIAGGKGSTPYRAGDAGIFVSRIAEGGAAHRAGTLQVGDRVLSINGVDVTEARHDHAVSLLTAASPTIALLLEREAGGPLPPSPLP

[20] = target: T4, GRIP1_7, Q9Y3R0
T4 sequence (Q9Y3R0 999-1096, limits assumed, looked up): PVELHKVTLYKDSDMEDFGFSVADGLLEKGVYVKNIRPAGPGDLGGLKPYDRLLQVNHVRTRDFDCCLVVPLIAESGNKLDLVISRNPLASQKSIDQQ

[21] = target: T5, APBA2_1, Q99767
T5 sequence (Q99767 563-664, limits assumed, looked up): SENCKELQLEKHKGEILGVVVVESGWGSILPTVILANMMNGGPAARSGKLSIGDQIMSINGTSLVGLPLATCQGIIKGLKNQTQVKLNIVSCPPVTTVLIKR

[22] = target: SNX27, Q96L92
[23] = target: DLG2_2, Q15700
DLG2_2, Q15700, sequence (Q15700 189-283): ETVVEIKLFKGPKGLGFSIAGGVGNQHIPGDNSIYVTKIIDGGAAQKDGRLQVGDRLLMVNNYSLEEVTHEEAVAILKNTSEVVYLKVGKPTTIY

[24] = target: T6, DLG3_3, Q92796
T6 sequence (Q92796 374-475, limits assumed, looked up): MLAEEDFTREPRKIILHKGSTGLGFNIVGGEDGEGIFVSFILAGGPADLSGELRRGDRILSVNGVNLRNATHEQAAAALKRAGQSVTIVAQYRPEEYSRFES

[25] = target: SCRIB_1, Q14160
SCRIB_1, Q14160, sequence (Q14160 718-814): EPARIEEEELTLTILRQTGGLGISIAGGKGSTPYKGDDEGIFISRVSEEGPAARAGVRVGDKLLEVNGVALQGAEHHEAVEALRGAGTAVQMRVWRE

[26] = target: DLG4_2, P78352
DLG4_2, P78352, sequence (P78352 155-259): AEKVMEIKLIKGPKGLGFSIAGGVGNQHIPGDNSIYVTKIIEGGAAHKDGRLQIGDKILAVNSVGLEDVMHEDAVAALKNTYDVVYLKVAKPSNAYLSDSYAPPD

[27] = target: MAGI2_3, Q86UL8
MAGI2_3, Q86UL8, sequence (Q86UL8 600-682): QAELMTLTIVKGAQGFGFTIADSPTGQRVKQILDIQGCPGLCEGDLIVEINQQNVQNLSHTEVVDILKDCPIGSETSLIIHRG

[28] = target: FRMPD2_1, Q68DX3
FRMPD2_1, Q68DX3, sequence (Q68DX3 770-861): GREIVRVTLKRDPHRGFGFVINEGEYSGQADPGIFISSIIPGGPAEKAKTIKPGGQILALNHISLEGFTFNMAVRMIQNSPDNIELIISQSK

[29] = target: T7, TJP3_3, O95049
T7 sequence (O95049 375-456, limits assumed, looked up): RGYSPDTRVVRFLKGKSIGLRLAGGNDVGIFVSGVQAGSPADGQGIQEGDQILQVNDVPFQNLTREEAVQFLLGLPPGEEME

[30] = target: T8, DFNB31_3, Q9P202
T8 sequence (Q9P202 811-907, limits assumed, looked up): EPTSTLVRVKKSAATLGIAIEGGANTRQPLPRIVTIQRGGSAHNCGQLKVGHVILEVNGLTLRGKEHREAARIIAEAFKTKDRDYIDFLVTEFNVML

[31] = target: GOPC, Q9HD26
[32] = plain residues with an end cap or a label only (N-terminal biotin on a linker: ttds)
[33] = plain residues with an end cap or a label only (N-terminal biotin on a linker: ahx)

DLG4_1, P78352, sequence (P78352 62-152): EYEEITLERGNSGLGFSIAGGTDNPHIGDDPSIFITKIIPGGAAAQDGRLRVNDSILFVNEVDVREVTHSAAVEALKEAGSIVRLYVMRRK
NHERF4_4, Q86UT5, sequence (Q86UT5 464-550): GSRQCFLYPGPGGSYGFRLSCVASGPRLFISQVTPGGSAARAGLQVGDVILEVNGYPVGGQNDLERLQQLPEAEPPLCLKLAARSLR

## RPLPRKVSQL [DOCK4, Q8N1I0]
[1]; [32]
  pKd: below the threshold
[2]; [32]
  pKd: below the threshold
[3]; [32]
  pKd: 4.21
[4]; [32]
  pKd: below the threshold
[5]; [32]
  pKd: below the threshold
[6]; [32]
  pKd: 4.58
[7]; [32]
  pKd: below the threshold
[8]; [32]
  pKd: 4.85
[9]; [32]
  pKd: 4.32
[10]; [32]
  pKd: below the threshold
[11]; [32]
  pKd: below the threshold
[12]; [32]
  pKd: 3.69
[13]; [32]
  pKd: below the threshold
[14]; [32]
  pKd: below the threshold
[15]; [32]
  pKd: below the threshold
[16]; [32]
  pKd: below the threshold
[17]; [32]
  pKd: 3.84
[18]; [32]
  pKd: below the threshold
[19]; [32]
  pKd: below the threshold
[20]; [32]
  pKd: below the threshold
[21]; [32]
  pKd: below the threshold
[22]; [32]
  pKd: below the threshold
[23]; [32]
  pKd: below the threshold
[24]; [32]
  pKd: below the threshold
[25]; [32]
  pKd: below the threshold
[26]; [32]
  pKd: below the threshold
[27]; [32]
  pKd: below the threshold
[28]; [32]
  pKd: below the threshold
[29]; [32]
  pKd: below the threshold
[30]; [32]
  pKd: below the threshold
[31]; [32]
  pKd: 4.03

## NRKREIFSNF [NHERF2, Q15599]
[1]; [33]
  pKd: below the threshold
[2]; [33]
  pKd: below the threshold
[3]; [33]
  pKd: below the threshold
[4]; [33]
  pKd: below the threshold
[5]; [33]
  pKd: below the threshold
[6]; [33]
  pKd: 3.89
[7]; [33]
  pKd: below the threshold
[8]; [33]
  pKd: below the threshold
[9]; [33]
  pKd: below the threshold
[10]; [33]
  pKd: below the threshold
[11]; [33]
  pKd: below the threshold
[12]; [33]
  pKd: below the threshold
[13]; [33]
  pKd: below the threshold
[14]; [33]
  pKd: below the threshold
[15]; [33]
  pKd: below the threshold
[16]; [33]
  pKd: below the threshold
[17]; [33]
  pKd: below the threshold
[18]; [33]
  pKd: below the threshold
[19]; [33]
  pKd: below the threshold
[20]; [33]
  pKd: below the threshold
[21]; [33]
  pKd: below the threshold
[22]; [33]
  pKd: below the threshold
[23]; [33]
  pKd: below the threshold
[24]; [33]
  pKd: below the threshold
[25]; [33]
  pKd: below the threshold
[26]; [33]
  pKd: below the threshold
[27]; [33]
  pKd: below the threshold
[28]; [33]
  pKd: below the threshold
[29]; [33]
  pKd: below the threshold
[30]; [33]
  pKd: below the threshold
[31]; [33]
  pKd: below the threshold

## RRRKRKRTYL [HPV49-L2, P36762]
[1]; [33]
  pKd: 3.53
[2]; [33]
  pKd: 3.62
[3]; [33]
  pKd: 4.86
[4]; [33]
  pKd: 3.66
[5]; [33]
  pKd: 4.11
[6]; [33]
  pKd: 4.22
[7]; [33]
  pKd: below the threshold
[8]; [33]
  pKd: 4.81
[9]; [33]
  pKd: 4.69
[10]; [33]
  pKd: below the threshold
[11]; [33]
  pKd: 3.8
[12]; [33]
  pKd: 4.26
[13]; [33]
  pKd: below the threshold
[14]; [33]
  pKd: below the threshold
[15]; [33]
  pKd: 3.53
[16]; [33]
  pKd: below the threshold
[17]; [33]
  pKd: 3.65
[18]; [33]
  pKd: 3.63
[19]; [33]
  pKd: below the threshold
[20]; [33]
  pKd: 3.54
[21]; [33]
  pKd: below the threshold
[22]; [33]
  pKd: below the threshold
[23]; [33]
  pKd: 4.58
[24]; [33]
  pKd: 4.28
[25]; [33]
  pKd: 3.67
[26]; [33]
  pKd: below the threshold
[27]; [33]
  pKd: below the threshold
[28]; [33]
  pKd: 3.78
[29]; [33]
  pKd: below the threshold
[30]; [33]
  pKd: 4.25
[31]; [33]
  pKd: 4.3

## RAVEEEESRF [PSCDBP, O60759]
[1]; [33]
  pKd: below the threshold
[2]; [33]
  pKd: below the threshold
[3]; [33]
  pKd: 4.34
[4]; [33]
  pKd: below the threshold
[5]; [33]
  pKd: below the threshold
[6]; [33]
  pKd: 4.45
[7]; [33]
  pKd: below the threshold
[8]; [33]
  pKd: below the threshold
[9]; [33]
  pKd: below the threshold
[10]; [33]
  pKd: 3.7
[11]; [33]
  pKd: below the threshold
[12]; [33]
  pKd: below the threshold
[13]; [33]
  pKd: below the threshold
[14]; [33]
  pKd: below the threshold
[15]; [33]
  pKd: below the threshold
[16]; [33]
  pKd: below the threshold
[17]; [33]
  pKd: below the threshold
[18]; [33]
  pKd: below the threshold
[19]; [33]
  pKd: below the threshold
[20]; [33]
  pKd: below the threshold
[21]; [33]
  pKd: below the threshold
[22]; [33]
  pKd: 5.64
[23]; [33]
  pKd: below the threshold
[24]; [33]
  pKd: below the threshold
[25]; [33]
  pKd: below the threshold
[26]; [33]
  pKd: below the threshold
[27]; [33]
  pKd: below the threshold
[28]; [33]
  pKd: below the threshold
[29]; [33]
  pKd: below the threshold
[30]; [33]
  pKd: below the threshold
[31]; [33]
  pKd: below the threshold
